Data from patent US6022856.

Biological target: type-2 neurotensin receptor of rats (rNT-R2) (rat)
Test: displacement of 0.2 nM 125I-neurotensin from COS-3 cells transfected with rNT-R2

IC50: 5.1 nM
Substance: neuromedin N (from UniProt P30990) (peptide)
